From publication PMC6556434

Assays:
Experiment in all cases: ITC
H3(1-15)K4me3 peptide = molecular target: H3(1-15)K4me3 peptide
[1] = molecular target: H3(1-35)K4me3K27me3 doubly methylated peptide
H3(20-35)K27me3 peptide = molecular target: H3(20-35)K27me3 peptide

Substance | Kd (H3(1-15)K4me3 peptide) | stoichiometry N [1] | Kd (H3(20-35)K27me3 peptide)
EBS without the C-terminal autoinhibition loop (EBSΔC, 1-199) (from UniProt F4JL28 1-199) (domain or fragment) | 30.7 µM | 1 | –
EARLY BOLTING IN SHORT DAY (EBS), full length (from UniProt F4JL28 1-234) (natural protein) | 86.8 µM | – | 49.8 µM
